What was measured:
[1] = biological target: CIB1-CreC(106-343) (Arabidopsis thaliana) (UniProt Q8GY61); assay: cell-based or functional assay
NLS-pMag-CreC = assay: cell-based or functional assay
NLS-pMag-CreC, sequence (chain, as listed by the source): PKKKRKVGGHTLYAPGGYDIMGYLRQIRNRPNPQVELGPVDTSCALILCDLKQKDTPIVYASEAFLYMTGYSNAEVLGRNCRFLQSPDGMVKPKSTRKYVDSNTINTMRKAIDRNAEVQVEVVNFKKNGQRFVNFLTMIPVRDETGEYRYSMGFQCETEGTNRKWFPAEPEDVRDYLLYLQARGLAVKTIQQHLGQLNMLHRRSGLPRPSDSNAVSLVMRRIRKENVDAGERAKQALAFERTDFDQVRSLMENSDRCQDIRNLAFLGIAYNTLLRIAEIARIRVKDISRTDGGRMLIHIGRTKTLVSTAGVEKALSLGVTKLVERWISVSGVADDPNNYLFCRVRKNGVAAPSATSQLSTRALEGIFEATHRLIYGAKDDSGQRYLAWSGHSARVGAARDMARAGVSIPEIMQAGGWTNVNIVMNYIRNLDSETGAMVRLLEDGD

CreN(19-59)-nMag-NLS, sequence (P06956 19-59): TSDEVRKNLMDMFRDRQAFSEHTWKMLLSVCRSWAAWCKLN

Row | fold increase in Cre-loxP recombination, PA-Cre-C, Light against Dark [1] [fold] | normalized % recombined (EGFP+) EGFP Reporter HEK293T cells, PA-Cre-C, Light (30 W/m2, 30 s) [1] [%] | fold increase in Cre-loxP recombination, PA-Cre-M, Light against Dark (NLS-pMag-CreC) [fold] | fold increase in recombined PA-Cre-M+ CAR Reporter Jurkat T cells, Light against Dark (NLS-pMag-CreC) [fold] | normalized % recombined (CAR-EGFP+) PA-Cre-M+ CAR Reporter Jurkat T cells, Dark (NLS-pMag-CreC) [%] | normalized % recombined (CAR-EGFP+) PA-Cre-M+ CAR Reporter Jurkat T cells, Light, Protocol E (NLS-pMag-CreC) [%] | normalized % recombined (EGFP+) EGFP Reporter HEK293T cells, PA-Cre-M, Light (30 W/m2, 30 s) (NLS-pMag-CreC) [%] | normalized % recombined EGFP Reporter HEK293T cells, PA-Cre-M, Ambient light (NLS-pMag-CreC) [%] | normalized % recombined EGFP Reporter HEK293T cells, PA-Cre-M, Ambient, Protocol B experiment (NLS-pMag-CreC) [%] | normalized % recombined EGFP Reporter HEK293T cells, PA-Cre-M, Dark (pulsatile protocol experiment) (NLS-pMag-CreC) [%] | normalized % recombined EGFP Reporter HEK293T cells, PA-Cre-M, Dark (spontaneous background) (NLS-pMag-CreC) [%] | normalized % recombined EGFP Reporter HEK293T cells, PA-Cre-M, Dark, Protocol B experiment (NLS-pMag-CreC) [%] | normalized % recombined EGFP Reporter HEK293T cells, PA-Cre-M, Light, Protocol B (NLS-pMag-CreC) [%] | Substance
1 | 2.1 | 12.1 | – | – | – | – | – | – | – | – | – | – | – | CRY2(L348F)-CreN(19-104) (from UniProt Q96524 1-612; P06956 19-104)
2 | – | – | 3.4 | 4.1 | 5.2 | 21.2 | 90.8 | 28.9 | 45.2 | 20.4 | 26.7 | 32.9 | 84.8 | CreN(19-59)-nMag-NLS (from UniProt P06956 19-59)

From US20230036060A1, “DUAL-CONTROLLED DRUG AND PHOTOACTIVATABLE SYSTEM FOR SPATIOTEMPORAL CONTROL OF CELL THERAPY” (THE REGENTS OF THE UNIVERSITY OF CALIFORNIA, priority 2019, published 2023)
